Assay results reported in US12134635 (SONNET BIOTHERAPEUTICS, dated 2024).
Each block holds one molecule with its values, some of them ahead of it.

Columns and labels:
IL-18 binding protein = IL-18 binding protein (UniProt O95998); test: Biacore T200 SPR, CM5 chip, IL-18BP as immobilized ligand, hIL-18 titrated, 25 C
IL-18 receptor = biological target: T1, IL-18 receptor (UniProt Q13478 19-541; O95256 20-599, limits assumed); test: cell-based or functional assay
T1 sequence (looked up) 1: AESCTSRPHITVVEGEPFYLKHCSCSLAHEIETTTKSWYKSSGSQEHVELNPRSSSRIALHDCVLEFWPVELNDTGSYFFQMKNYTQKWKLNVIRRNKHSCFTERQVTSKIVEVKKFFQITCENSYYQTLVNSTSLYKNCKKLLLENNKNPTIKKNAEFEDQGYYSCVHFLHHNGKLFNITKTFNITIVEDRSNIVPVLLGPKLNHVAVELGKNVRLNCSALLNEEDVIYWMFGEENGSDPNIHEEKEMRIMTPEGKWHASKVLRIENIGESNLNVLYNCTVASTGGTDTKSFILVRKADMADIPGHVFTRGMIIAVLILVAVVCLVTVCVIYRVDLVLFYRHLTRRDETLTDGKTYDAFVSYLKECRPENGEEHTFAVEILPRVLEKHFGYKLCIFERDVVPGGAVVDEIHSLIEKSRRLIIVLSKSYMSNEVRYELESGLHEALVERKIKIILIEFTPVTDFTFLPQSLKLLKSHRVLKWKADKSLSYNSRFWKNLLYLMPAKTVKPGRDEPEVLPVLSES
T1 sequence (looked up) 2: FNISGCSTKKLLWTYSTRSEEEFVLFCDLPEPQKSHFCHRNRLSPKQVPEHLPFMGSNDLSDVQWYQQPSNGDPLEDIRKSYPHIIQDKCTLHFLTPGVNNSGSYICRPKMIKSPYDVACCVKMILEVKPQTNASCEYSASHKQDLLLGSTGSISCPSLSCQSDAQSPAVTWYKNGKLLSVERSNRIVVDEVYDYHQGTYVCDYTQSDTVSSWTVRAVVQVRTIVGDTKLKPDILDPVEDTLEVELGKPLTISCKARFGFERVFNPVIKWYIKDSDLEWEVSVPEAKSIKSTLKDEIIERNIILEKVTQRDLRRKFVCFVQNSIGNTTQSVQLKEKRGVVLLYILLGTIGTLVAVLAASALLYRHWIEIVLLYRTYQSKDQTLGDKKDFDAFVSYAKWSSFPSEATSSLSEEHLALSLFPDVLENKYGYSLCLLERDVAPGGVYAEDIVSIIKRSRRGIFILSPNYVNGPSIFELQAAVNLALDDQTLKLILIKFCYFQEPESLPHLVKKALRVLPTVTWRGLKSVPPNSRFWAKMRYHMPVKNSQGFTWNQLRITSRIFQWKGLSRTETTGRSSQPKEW

Kd (IL-18 binding protein): 0.056 nM
Molecule: Recombinant hIL-18 (NIBSC wildtype) (from UniProt Q14116 37-193) (ligand)

EC50 (read off the curve), HEK-Blue IL-18 reporter, OD at 640 nM (IL-18 receptor): ~0.03 ng/mL
B1: hIL-18 Variant A (ligand)
chain: WFGKLESKLSVIRNLNDQVLFIDQGNRPLFEDMTDSDSRDNAPRTIFIISYYKDSQPRGWAVTISVKSEKISTLSSENKIISFKEMNPPDNIKDTKSDIIFFQRSVPGHYNKMQFESSSYEGYFLASEKERDLFKLILKKEDELGDRSIMFTVQNED
